US20250129168A1 (DREN BIO, published 2025)

Columns and labels:
[1] = biological target: T1, human Dectin-1 isoform A (human, UniProt Q9BXN2 1-247); test: flow cytometry on HEK293F hDectin-1a FL cells
T1 construct: On HEK-Blue hDectin-1a cells (Invivogen); also called hDectin-1a
T1 sequence: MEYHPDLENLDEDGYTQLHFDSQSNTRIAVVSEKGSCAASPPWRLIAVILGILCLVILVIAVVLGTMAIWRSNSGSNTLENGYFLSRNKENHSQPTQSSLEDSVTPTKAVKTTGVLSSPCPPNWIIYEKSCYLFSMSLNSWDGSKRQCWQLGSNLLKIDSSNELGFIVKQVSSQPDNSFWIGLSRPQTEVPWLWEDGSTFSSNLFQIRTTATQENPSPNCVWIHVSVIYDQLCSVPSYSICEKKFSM

[2] = biological target: T1, human Dectin-1 isoform A; test: flow cytometry on HEK-Blue hDectin-1a cells (summary table)
[3] = biological target: T2, human Dectin-1 isoform B (human, UniProt Q9BXN2 1-247); test: flow cytometry on HEK-Blue hDectin-1b cells
T2 construct: On HEK-Blue hDectin-1b cells (Invivogen); also called hDectin-1b
T2 sequence: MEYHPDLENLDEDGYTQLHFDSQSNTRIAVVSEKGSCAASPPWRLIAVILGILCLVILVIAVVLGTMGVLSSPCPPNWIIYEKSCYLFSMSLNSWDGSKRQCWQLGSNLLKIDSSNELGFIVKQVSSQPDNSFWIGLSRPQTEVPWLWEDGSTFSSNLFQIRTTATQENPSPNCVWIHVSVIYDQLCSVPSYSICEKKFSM

[4] = biological target: T1, human Dectin-1 isoform A; test: flow cytometry on HEK-Blue hDectin-1a cells
[5] = biological target: T3, human Dectin-1 (isoform not given) (human, UniProt Q9BXN2 1-247); test: flow cytometry on human monocytes (summary table)
T3 chain: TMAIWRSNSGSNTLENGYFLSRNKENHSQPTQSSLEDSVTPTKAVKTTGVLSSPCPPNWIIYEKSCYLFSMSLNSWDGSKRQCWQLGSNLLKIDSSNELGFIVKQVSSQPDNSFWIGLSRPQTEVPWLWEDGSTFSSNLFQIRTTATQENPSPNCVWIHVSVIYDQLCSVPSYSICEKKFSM

[6] = biological target: T4, cynomolgus monkey Dectin-1 (cynomolgus monkey, UniProt A0A2K5UXY6 35-281); test: flow cytometry, cynomolgus monkey monocytes
T4 construct: whole, on cells; also called cynomolgus Dectin-1; cyno Dectin-1
T4 sequence: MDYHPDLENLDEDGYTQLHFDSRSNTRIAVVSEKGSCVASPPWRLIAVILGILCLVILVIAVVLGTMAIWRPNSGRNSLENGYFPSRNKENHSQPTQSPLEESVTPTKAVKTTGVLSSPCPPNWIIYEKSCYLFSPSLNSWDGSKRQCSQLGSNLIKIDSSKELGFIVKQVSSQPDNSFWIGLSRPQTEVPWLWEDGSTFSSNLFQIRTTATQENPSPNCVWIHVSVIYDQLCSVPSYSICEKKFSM

[7] = biological target: T3, human Dectin-1 (isoform not given); test: flow cytometry on human monocytes
[8] = biological target: T2, human Dectin-1 isoform B; test: flow cytometry on HEK-Blue hDectin-1b cells (summary table)
[9] = biological target: T3, human Dectin-1 (isoform not given); test: cell-based or functional assay
[10] = biological target: T1, human Dectin-1 isoform A; test: flow cytometry on HEK293F hDectin-1a FL cells (summary table)
[11] = biological target: T3, human Dectin-1 (isoform not given); test: flow cytometry on Dectin-1-expressing HEK cells
[12] = biological target: T3, human Dectin-1 (isoform not given); test: flow cytometry on Dectin-1-expressing HEK cells, 4PL fit [upper panel]
[13] = biological target: T5, Trop-2 (human, UniProt P09758 27-323); test: flow cytometry on A431 cells (Trop-2-expressing)
T5 construct: whole, on cells
T5 sequence (looked up): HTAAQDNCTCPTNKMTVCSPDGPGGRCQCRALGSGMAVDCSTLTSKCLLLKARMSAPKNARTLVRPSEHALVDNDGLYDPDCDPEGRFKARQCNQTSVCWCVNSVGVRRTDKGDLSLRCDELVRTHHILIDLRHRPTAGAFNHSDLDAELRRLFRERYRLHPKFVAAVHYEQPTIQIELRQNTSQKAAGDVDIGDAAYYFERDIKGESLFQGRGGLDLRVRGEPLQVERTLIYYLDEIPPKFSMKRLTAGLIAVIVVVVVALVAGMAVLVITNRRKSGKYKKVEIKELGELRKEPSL

[14] = biological target: T6, Fc gamma receptor CD16a F variant (human, UniProt P08637); test: ELISA, plate coated with recombinant huCD16a (F variant), detection with peroxidase anti-human IgG F(ab')2, OD 450 nm - 630 nm
T6 construct: recombinant protein coated on the ELISA plate; also called recombinant huCD16a
T6 sequence (P08637 17-208 limits assumed, change not shown): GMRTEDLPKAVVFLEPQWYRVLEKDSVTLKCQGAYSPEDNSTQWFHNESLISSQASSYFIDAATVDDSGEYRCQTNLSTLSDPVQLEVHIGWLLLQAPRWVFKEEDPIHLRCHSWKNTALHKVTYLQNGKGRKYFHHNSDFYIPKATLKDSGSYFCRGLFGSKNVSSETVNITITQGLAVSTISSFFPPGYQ

B1: commercial anti-Dectin-1 antibody 15E2 (antibody, V domains shown)
VH: QWQLQQSGAELARPGASWKMSCKASGYTFTTYTMHWWKQRPGQGLEWIGYINPSSGYTNYNQKFKDKATLTADKSSSTASMQLSSLTSEDSAWYYCARERAVLVPYAMDYWGQGTSVTVSS
VL: QIVLTQSPAVMSASPGEKWTITCTASSSLSYMHWFQQKPGTSPKLWLYSTSILASGVPTRFSGSGSGTSYSLTISRMEAEDAATYYCQQRSSSPFTFGSGTKLEIK
- EC50 [1]: 1.4 nM
- EC50 [2]: 1.2 nM
- EC50 [3]: 9.3 nM
- EC50 [4]: 1.2 nM
- EC50 [5]: 0.6 nM
- EC50 [6]: 14 nM
- EC50 [7]: 0.6 nM
- EC50 [8]: 9.3 nM
- IFNg secretion in PBMC, immobilized antibody (fold change to isotype) [9]: 1.6 fold change to isotype
- IL6 secretion in PBMC, immobilized antibody (fold change to isotype) [9]: 2.6 fold change to isotype
- TNFa secretion in PBMC, immobilized antibody (fold change to isotype) [9]: 3 fold change to isotype
- EC50 [10]: 1.4 nM

B2: 2M24/Trop-2 hIgG1 bispecific antibody (bispecific antibody, V domains shown)
VH 1: QVQLVQSGAEVKKPGASVKVSCKSSGYTFTDYYIHWVRQAPGQGLEWMGWINPNSGDTNYAQKFQGRITMTRDTSISTAYLELSRLRSDDTAVFYCARNSGSYSFGYWGQGTLVTVSS
VL 1: DIQMTQSPSSVSASVGDRVTITCRASQGISSWLAWYQQKPGKAPKLLIFGASSLQSGVPSRFSGSGSGTDFTLTVSSLQPEDFATYYCQQAYSFPFTFGPGTKVDIE
VH 2: QVQLQQSGSELKKPGASVKVSCKASGYTFTNYGMNWVKQAPGQGLKWMGWINTYTGEPTYTDDFKGRFAFSLDTSVSTAYLQISSLKADDTAVYFCARGGFGSSYWYFDVWGQGSLVTVSS
VL 2: DIQLTQSPSSLSASVGDRVSITCKASQDVSIAVAWYQQKPGKAPKLLIYSASYRYTGVPDRFSGSGSGTDFTLTISSLQPEDFAVYYCQQHYITPLTFGAGTKVEIK
notes: Human IgG1; also called anti-Dectin-1 (2M24)/anti-Trop-2 bispecific antibody
- EC50 (read off the curve) [11]: ~3 nM

B3: 2M24/Nectin-4 hIgG1 bispecific antibody (bispecific antibody, V domains shown)
VH 1: QVQLVQSGAEVKKPGASVKVSCKSSGYTFTDYYIHWVRQAPGQGLEWMGWINPNSGDTNYAQKFQGRITMTRDTSISTAYLELSRLRSDDTAVFYCARNSGSYSFGYWGQGTLVTVSS
VL 1: DIQMTQSPSSVSASVGDRVTITCRASQGISSWLAWYQQKPGKAPKLLIFGASSLQSGVPSRFSGSGSGTDFTLTVSSLQPEDFATYYCQQAYSFPFTFGPGTKVDIE
VH 2: EVQLVESGGGLVQPGGSLRLSCAASGFTFSSYNMNWVRQAPGKGLEWVSYISSSSSTIYYADSVKGRFTISRDNAKNSLSLQMNSLRDEDTAVYYCARAYYYGMDVWGQGTTVTVSS
VL 2: DIQMTQSPSSVSASVGDRVTITCRASQGISGWLAWYQQKPGKAPKFLIYAASTLQSGVPSRFSGSGSGTDFTLTISSLQPEDFATYYCQQANSFPPTFGGGTKVEIK
notes: Human IgG1
- EC50 [12]: 2.65 nM

B4: parental anti-Trop2 monospecific antibody (antibody, V domains shown)
VH: QVQLQQSGSELKKPGASVKVSCKASGYTFTNYGMNWVKQAPGQGLKWMGWINTYTGEPTYTDDFKGRFAFSLDTSVSTAYLQISSLKADDTAVYFCARGGFGSSYWYFDVWGQGSLVTVSS
VL: DIQLTQSPSSLSASVGDRVSITCKASQDVSIAVAWYQQKPGKAPKLLIYSASYRYTGVPDRFSGSGSGTDFTLTISSLQPEDFAVYYCQQHYITPLTFGAGTKVEIK
- EC50 (read off the curve) [13]: ~8 nM

B5: 2M24 CD20 NF (bispecific antibody)
chain 1: not shown
chain 2: not shown
chain 3: not shown
chain 4: QIVLSQSPAILSASPGEKVTMTCRASSSVSYIHWFQQKPGSSPKPWIYATSNLASGVPVRFSGSGSGTSYSLTISRVEAEDAATYYCQQWTSNPPTFGGGTKLEIKRTVAAPSVFIFPPSDEQLKSGTASVVCLLNNFYPREAKVQWKVDNALQSGNSQESVTEQDSKDSTYSLSSTLTLSKADYEKHKVYACEVTHQGLSSPVTKSFNRGEC
modifications: non-fucosylated Fc glycan
- EC50 (read off the curve) [14]: ~0.1 µg/mL
